“Also recorded” adds a separate entry of the source.
How the values were obtained:
[1] = tested on: dorsal root ganglia (DRG) cells; assay: Cell attachment assay, DRG neurons on protein-coated solid support; assay type: cell-based, chicken; conditions: short-term attachment assay
Experimental: Dorsal root ganglia (DRG) cells or forebrain neurons were prepared for the cell attachment assays as follows. DRG from day 6 chicken embryos or forebrains from day 7 chicken embryos were dissected into HBSS. The tissue was pelleted by centrifugation and resuspended in CMF-HBSS and incubated at 37° C. for 10 minutes. The tissue was pelleted again and resuspended in CMF-HBSS containing 0.08% trypsin and allowed to trypsinize for 20 minutes at 37° C. An equal volume of DMEM/F12, 10% FCS, 20 ng/ml nerve growth factor (NGF) (for DRG cells only), 10 μg/ml gentamycin (10% medium) was added, and the tissue was pelleted and resuspended in 2 ml of the 10% medium. The cells were triturated with a fire-polished Pasteur pipette for 15 strokes, and the cells were washed and resuspended in 10 ml of 10% medium. DRG cells were plated in a 10 cm tissue culture dish and incubated for 1 hour at 37° C. in 5% CO2, to allow for attachment of contaminating fibroblasts.
After replating, the cells were harvested, pelleted and washed three times in DMEM/F12, 1% fetal calf serum (FCS), 20 ng/ml NGF (for DRG cells only), 10 μg/ml gentamycin (1% medium), and the number of cells determined using a hemocytometer. The DRG were resuspended to a density of 6×10^5 cells/ml in attachment buffer. […]
Chicken fibroblasts, DRG, and solid supports (dishes) coated with CT for use in the cell attachment assays were prepared as described in Examples 5.A.2-4, respectively. […] The number of bound cells was determined using a 10× objective with an eyepiece reticle. The number of cells was determined in four fields for each fusion protein dot as the number of cells bound per […]. […] The number of cells bound for CT was expressed as the average of the twelve measurements±standard deviation […]. […]
Cell attachment assays were performed essentially as follows. […] The cells were then washed in attachment buffer (CMF-HBSS, 10 mM Hepes, 1 mM CaCl2, 1 mM MgCl2, 0.1 mM MnCl2, 2% BSA) three times, counted in a hemocytometer, resuspended to a density of 6×10^5 cells/ml. […]

[2] = tested on: chicken fibroblast cell line SL29; assay: Cell attachment assay, fibroblasts on protein-coated solid support; assay type: cell-based; conditions: for SL29 fibroblast attachment to coated substrate (words): CT coated at 20 μg/ml, binding fragments at 0.75 μM, non-binding at three times that, 1 hour; for spreading of SL29 cells on substrate: coated at 0.75 μM
Experimental: In the cell attachment assays, a single cell suspension was allowed to settle for a fixed period of time onto a solid support that has been coated with the different CT-derived proteins to be tested for cell attachment (Friedlander, et al., J. Cell Biol. 107: 2329-2340 (1988)). After removing the unbound and loosely bound cells by washing, the attachment and morphology of those cells remaining on the dish were analyzed.
Solid supports, consisting of a circular array of CT or CT:GST fusion proteins bound to a dish, were prepared as follows for the cell attachment assay.
For the initial study, non tissue-culture treated polystyrene plates (Falcon 1008) were spotted with 2 μl of a 0.5 to 1.5 μM solution of CT in PBS for 30 minutes to coat a specific area on the dish with CT. CT was isolated from chicken brain or from fibroblast culture supernatant as described in Crossin, PNAS 88: 11403-11407 (1991) and Hoffman et al., J. Cell Biol. 106: 519-532 (1988). CT was placed in a circular array near the center of the dish and incubated at 37° C. for 30 minutes. After CT had adsorbed to the dish, the central portion of the dish was washed once with 250 μl of 20% (w/v) BSA in PBS. Non-specific binding sites on the dish were then blocked with 250 μl of 20% (w/v) BSA in PBS by incubation for 2 to 3 hours at room temperature.
For the subsequent study with the CT:GST fusion proteins, non tissue-culture treated polystyrene plates (Falcon 1008) were spotted with 2 μl of a 0.5 to 1.5 μM solution of CT:GST fusion protein in PBS as prepared in Example 5.A.2 or GST in PBS for 30 minutes to coat a specific area on the dish with CT:GST fusion protein or GST. The proteins to be tested were placed in a circular array near the center of the dish and incubated at 37° C. for 30 minutes. After the proteins adsorbed to the dish, the central portion of the dish was washed once with 250 μl of 20% (w/v) BSA in PBS. Non-specific binding sites on the dish were then blocked with 250 μl of 20% (w/v) BSA in PBS by incubation for 2 to 3 hours at room temperature.
The chicken fibroblast cell line SL29 (ATCC CRL 1590) was grown to confluence in Dulbecco's Minimum Essential Medium (DMEM; Gibco-BRL, Gaithersburg, Mass.) with 10% (v/v) fetal calf serum (FCS; Gibco-BRL) with penicillin and streptomycin. The cells were passaged the night prior to the assay and seeded at a density of 1:2. Cells were harvested in calcium, magnesium-free Hank's balanced salt solution (CMF-HBSS, Gibco-BRL) with 20 mM Hepes buffer and 5 mM EDTA. Harvested cells were washed in attachment buffer (CMF-HBSS with 10 mM Hepes, 1 mM CaCl2, 1 mM MgCl2, 0.1 mM MnCl2, and 2% (w/v) bovine serum albumin (BSA)) three times. The number of cells was quantitated by counting the cells in a hemocytometer. The cells were resuspended in attachment buffer to a density of 6×10^5 cells/ml.
Chicken fibroblasts, DRG, and solid supports (dishes) coated with CT for use in the cell attachment assays were prepared as described in Examples 5.A.2-4, respectively. The chicken fibroblasts and DRG at a density of 6×10^5 cells/ml were added to the prepared dishes and incubated at 37° C. in 5% CO2 for 1 hour. The dishes were then washed three times in PBS with gentle swirling to remove unattached cells, fixed in 1% glutaraldehyde in PBS, and viewed by phase contrast microscopy. The number of bound cells was determined using a 10× objective with an eyepiece reticle. The number of cells was determined in four fields for each fusion protein dot as the number of cells bound per […]. CT was tested in triplicate. The number of cells bound for CT was expressed as the average of the twelve measurements±standard deviation […].
CT, coated at a concentration of 20 μg/ml, was used as a solid support for SL29 fibroblast attachment. […] Fragments of CT were generated using the pGEX fusion protein system, as described in Example 1. The cell attachment assay was performed essentially as described above for the cell attachment assay to intact CT. […]

| Molecule | DRG neuron attachment to coated substrate (words) [1] | DRG neuron attachment to coated substrate (words) ([1]; listed as Ctfn6) | SL29 fibroblast attachment to coated substrate (words) [2] | SL29 fibroblast attachment to coated substrate (words) ([2]; listed as Ctfn6) | SL29 fibroblast attachment to coated substrate (words) ([2]; listed as sixth repeat) | spreading of SL29 cells on substrate [2] |
| --- | --- | --- | --- | --- | --- | --- |
| CTfn6: CT:GST fusion protein, fibronectin type III repeat VI, residues 1318-1398 of SEQ ID NO 4 (protein, left off: a dimerising Fc or GST) VVGSPKGISFSDITENSARVSWTPPRSRVDSYRVSYVPITGGTPNVVTVDGSKTRTKLVKLVPGVDYNVNIISVKGFEESE | able to support DRG neuron attachment; also recorded: supports both fibroblast and neuronal cell attachment | support fibroblast and neuronal cell attachment | robust SL29 cell attachment was supported; also recorded: supports both fibroblast and neuronal cell attachment | support fibroblast and neuronal cell attachment | fibroblast attachment activity was localized to the sixth repeat | little or no spreading |
| CTfg: CT:GST fusion protein, entire fibrinogen domain, residues 1570-1810 of SEQ ID NO 4 (protein, left off: a dimerising Fc or GST) SMRSKMIQTVFTTTGLLYPYPKDCSQALLNGEVTSGLYTIYLNGDRTQPLQVFCDMAEDGGGWIVFLRRQNGKEDFYRNWKNYVAGFGDPKDEFWIGLENLHKISSQGQYELRVDLRDRGETAYAVYDKFSVGDAKTRYRLRVDGYSGTAGDSMTYHNGRSFSTFDKDNDSAITNCALSYKGAFWYKNCHRVNLMGRYGDNNHSQGVNWFHWKGHEYSIQFAEMKLRPSSFRNLEGRRKRA | able to support DRG neuron attachment; also recorded: attached well | – | robust SL29 cell attachment was supported; also recorded: readily attached; also recorded: attached well | – | – | little or no spreading |
| CTfn3: CT:GST fusion protein, fibronectin type III repeat III, residues 774-864 of SEQ ID NO 4 (protein, left off: a dimerising Fc or GST) LDAPSQIEAKDVTDTTALITWSKPLAEIEGIELTYGPKDVPGDRTTIDLSEDENQYSIGNLRPHTEYEYEVTLISRRGDMESDPAKEVFVT | – | – | robust SL29 cell attachment was supported; also recorded: readily attached; also recorded: attached well | – | – | exhibited cell spreading; also recorded: spreading of cells was observed |
